Earlier results, collected in US20090291133A1, “METHODS AND COMPOSTIONS FOR ENHANCING TRANSDERMAL DRUG DELIVERY” (NATIONAL HEALTH RESEARCH INSTITUTES, priority 2008, published 2009).
Where two headings read alike, the source gives them in different places.

Conditions: reported in US005534260A

B1: papain (protein, UniProt P00784 134-345, looked up)
Papain: IPEYVDWRQKGAVTPVKNQGSCGSCWAFSAVVTIEGIIKIRTGNLNEYSEQELLDCDRRSYGCNGGYPWSALQLVAQYGIHYRNTYPYEGVQRYCRSREKGPYAAKTDGVRQVQPYNEGALLYSIANQPVSVVLEAAGKDFQLYRGGIFVGPCGNKVDHAVAAVGYGPNYILIKNSWGTGWGENGYIRIKRGTGNSYGVCGLYTSSFYPVKN
notes: proteolytic enzyme used as permeability enhancer
safe concentration of papain (equivalent in solution): 4 µM | safe concentration of papain: around 0.093 mg/ml
